Data taken from US20260275311, “CRISPR NUCLEASE POLYPEPTIDES AND GENE EDITING SYSTEMS COMPRISING SUCH” (ARBOR BIOTECHNOLOGIES, INC., published 2026).

Tested on: T1, Nuclease M A373R A373R
T1 sequence: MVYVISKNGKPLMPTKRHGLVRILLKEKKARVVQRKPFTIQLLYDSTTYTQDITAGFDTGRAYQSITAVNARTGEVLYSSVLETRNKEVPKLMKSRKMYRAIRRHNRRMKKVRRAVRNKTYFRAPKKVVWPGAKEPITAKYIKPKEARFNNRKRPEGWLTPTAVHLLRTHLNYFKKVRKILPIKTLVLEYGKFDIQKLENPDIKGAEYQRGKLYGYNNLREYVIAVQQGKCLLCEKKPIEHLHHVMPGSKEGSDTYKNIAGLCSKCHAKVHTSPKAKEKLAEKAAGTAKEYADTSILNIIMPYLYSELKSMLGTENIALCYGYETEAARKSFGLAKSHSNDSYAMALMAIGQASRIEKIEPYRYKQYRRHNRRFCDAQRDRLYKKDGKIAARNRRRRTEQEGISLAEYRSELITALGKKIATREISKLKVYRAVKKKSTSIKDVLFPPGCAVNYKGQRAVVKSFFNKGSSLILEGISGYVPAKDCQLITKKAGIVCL
Assay: cell_activity
Details: PAM TTAAA; HEK293T

## GAGCCUGGUCCAUGGAGAGUGUCAACUACCCCCGUCUAAAGACGGAGGCAUGAGGUUUCGUAACCAAGUGUUGUACCUGCGGGUACAGUAGUUGAACAGGCGGCGAUGCGGCUGGGCACUCCAGGAUGCCACUCCCAGUCCCGGACACUGCCGACGAGCCGCAUCAAGCCGGGGGAGACCAACCGGCUAACGAUAGCCGAGCAAUUACCUAAAAAGAGGUGCAAAGGAAAUGGUAU / GAGCCTGGTCCATGGAGAGT / ACTCTCCATGGACCAGGCTC [Nuclease M VEGFA-T5 guide ; Nuclease M VEGFA-T5 target]
  binding signal (fold vs Nuclease M): 1.53
